Test: soluble on expression in E. coli; label from the status in PepcDB or PDB records

Soluble on expression in E. coli, not soluble:
MSLQPTAGETTFERVRRTRKLRIGAVNGGAPYYYRDLASGQWKGFYIDICKALADEMECELDVTETTWGNSVLDLQAGKTDVFFGLNPTPKRALVVDFSVPVFANAFTFITRKGFERKTWAEMNDPAVRIAVDAGSSHDAVVTRLAPKAQITRLKGADDATAALQAGRVDAQCLVFILSLTVLKKNPALGQFTLPTPIFSTTSNAGFRREADKTWRDYVSTWIEFNKGMGFIRSAIIGNLESEGHHHHHH
PTVLAVTDEELTIRFVSPAIERVLGYDMESLVGTNWLDLVHPADTDRVLATLTGEREDDGTEYRFRNADGDWVWLETIVSSDTE
MSLNSAIKDIEIIEMGEKLRETSSPWSSTILLVKLTSADGLVGYGEAPTTLMTLPVLESMKEVARVFKGKDFFNVEQNVFDFYRNSFYLPVSMEATSALSAFEIASWDLIGKELGTPVYKLIGGEVNHNIRAYANGWYNDCVTPDDFVKKAKEVVKMGFTAMKFDPFGDNYDTITNEGIENARNIVGALRSEFGEKVDLLIEYHGRFSKIAAIKAGMALEEFKPYFYEEPLHPDLDHDLLDLKQYYKVPIALGERVLNKKIFARFISQKLVDIIQPDLTNSGGILEAKKIAAIADGFGIPIAPHNAFGPIQTAATLNVDTTLTNFAIQESFEMFWPDWKKNLMASGYKLENGYFRLTGDAGIGKVNESIVEKYQVSGMEPFDDKEPPWVVSGTFKHYQQKEGHHHHHH
SLTITVLQGGNVLDLERGVLLEHHHVVIDGERIVEVTDRPVDLPNAQAIDVRGKTVMPGFIDCHVHVLASNANLGVNATQPNILAAIRSLPILDAMLSRGFTSVRDAGGADWSLMQAVETGLVSGPRIFPSGKALSQTGGHGDFRPRGDLLEPCSCCFRTGAIARVVDGVEGVRLAVREEIQKGATQIKIMASGGVASPTDPIANTQYSEDEIRAIVDEAEAANTYVMAHAYTGRAIARAVRCGVRTIEHGNLVDEAAAKLMHEHGAFVVPTLVTYDALAKHGAEFGMPPESVAKVASVQQKGRESLEIYANAGVKMGFGSDLLGEMHAFQSGEFRIRAEVLGNLEALRSATTVAAEIVNMQGQLGVIAVGAIADLVVLDGNPLEDIGVVADEGARVEYVLQRGTLVKRQAGGR
MGSDKIHHHHHHMSTEHLLLVSLLKKLKDDALVLPTLPEVAMRVQEVVGRSDASLKQVAEVIGQDAAISARIIKVANSALYSRGVPAESINSAVSRIGLIQIKSIATSVAMEQLFISTNEMVWEVMDEVWRTSIDVTAAACAMLQMYNKRHSTSRLNFDTLTLAGLVHNIGALPVLTEAEAQPHLFTSIDQLRALVRKMQGPLGRAVLKSWDFSTEVMEVVERWADLPYLPDHVTYLDFIRAAAFYTGELRAGTELEQRLGVFVARGLPVTTDDLASDEFMEKFHSIRESYQ
MAEKLSAHCHCGAVAFTVELSDGFNTVRRCNCSYCRMRGAVAVSSPRSGIEVVRGGDKLTEYRFNTGEAVHFFCSVCGIYTFHQRRSNPQQYGVNVACIDGVSPFDFP
MGSDKIHHHHHHMALALTLREYEFSVLLLEARELPEKVDDPRPLALSYGSRLILQRLDIWKNLTQPAPITTIHISNRGHFGHAVLTPDDAGVPALGYVVNYHDLYHSMGRAIRGSNAVYQTNALVTAIRTDLSLAQVAYQQGSTTRQVRARLLVLADGGKLAEQIDGVRYHTYDYQQTAIVANVKVESPRPGTAFERFTLNGPLALLPSGEGYALVWTMPAAAAEKILKLDDRSFLLHLHEQFGDRMGEFTHVGPRSSFPLILKHASTITGHRAVLIGNAAQALHPVAGQGFNLGLRDAWELASEISRIPSGTPGEPGSTRMLAAYSRRRQSDKRISRLFTDSLVKLFTADLPLVQTCSGMGLAALDNLPPARRLIAHQMIFGTKGWFIG
MGSDKIHHHHHHMRVLIINTSERIGGAAVAAGRLMESLKNNGIKAKMLVRDKQTDQISVVGLKGSWLHVWKFMWERIVIWKANRFKKNDLFAVDIANTGTDITSLPEFQQADVIHLHWINQGMLSLNTIRKILTSGKPVVWTMHDMWPCTGICHYARECKNYEQECHHCPYIYGGGGKKDLSTRIFRKKKEIYSQASITFVGCSRWLAEKAKVSGLLTGQTVISIPNAINTNLFKPHNKQEARRKCRLPQEGKLILFGSVKITDKRKGIDYLIEACKLLAEKHPEWKESLGVVVFGNQSQQLQDLIPFRVYPLPYIKNEHELVDIYNAVDLFAIPSLEENLPNMVMEAMSCGVPCVGFNTGGIPEMIDHLHNGYVAQRKSSEDLANGIHWVLTEPEYAELSAQACRKAIGNYSESIIAKKYTEVYNKITGKYA
MGSDKIHHHHHHMLTDMQRDSASSSTVTTEQIVYGALPLTTINEPECRAIAITSINGSATLSGVSGPMGDQTDADLLIQLRGWADAIVVGAETARKENYGPVVLPHGIKNQRQKLGRCGLPKLTLLSKSLYFDFSSELFSPDLPSELSPLVITQQPANNSEQWDQRLQKLIDVGVEVIVAPTSTNPLKIAFDALHARRLKKISIEGGPSVYRQALSLGIVDRLHLTIAPNIICPVESPLFGKISDDSFTTRLVLEMLSSSPNGLIFSRYKVIRDTLGNPTQ

Soluble on expression in E. coli, soluble:
MSLLAYTYIEHGKFELREKPEPKITDARDAIVRVTLGSICTSDLHIKHGSVPRAVPGITVGHEMVGVVEEVGAEVTSVRPGDRVTVNVETFCGECFFCHHGYVNNCTDPNGGWALGCRIDGGQAEYVRVPYADQGLNRIPDTVSDEQALFVGDVLATGFWATRISEITEKDTILLIGAGPTGICTLLCSMLKNPKRIIVCEKSPERIQFVREHYPDVLITTPENCKEFVLQNSDHSGADVVLEVAGTEDSFRMAWDCARPNAIVTIVALYDKPLLFPLPEMYGKNLTFKTGGVDGCDCAEILSLIEEGKIDTTPLITHRCSLNEIEEAYRIFENKLDGVIKVAIVCQTESEGHHHHHH
MSLKQNQNSDESIDENMSVDNTETCMVDTVKATAIFWIDKAEAKHCKDSGLRTIKAKVFIHENGKVDFLSFTKKQSSGVEKYILHHLDKFQISKRMLEGGYIQTGEQFVQLRCMREKLQAMQEGHHHHHH
MALSHSVKERTISENSLIILLQGLQGQITTVDLRDESVARGRIDNVDAFMNIRLANVTYTDRWGHQVELDDLFVTGRNVRYVHIPDGVDITATIEQQLQIIHRVRNFGGKGQGRREFPSKRP
MNKILIAAASSGTGKTTVTLGIMHALKKRGLRVQPFKVGPDYIDTNYHQAITGVASINLDSFLIDDDAMLAALFEKHGQSADISVIEGVMGLFDGLGIDRDNSSTSFIAKCTKTPVILVVDGKAISTSAAAIVDGFNRFDPELTIAGVIINRVASENHFSLIKGAIERYTDVPVLGYLPKNAAVALPERHLGLVPKEEMTELETKWEVLGDLIAEHVDLDRLLAISKTGAKLTVHPPEIQVPDFSGMRVAYALDAAFHFYYQDNLDFIRSTGATLIPFSPLEEREVPDADFIYIGGGFPEVFAERLAKNKSMHESILAAHEQGKPIYAECGGLMYLGSSLEMEAESYEMVGVFDGVSKMTTRLRKFGYCIAEPLEDTLLGKKGTAIRGHEFHHSVFETTEPTRMKLTKKRDGETVKEWHGGYQKGNTFASYLHIHFYQNLAMITHMFGAIERLEHHHHHH
SLHIDVNNALNRAELVHSALFHEVDAIDSFCADWAEWDDTYNFVLNRNMDYVESNLVDETFPTLNVNYIVYLDRNGEVVLAKGYDLENETAMNPSQPLIERFRELSARNDLDVKKGFLRFDNSIYAFSARPILRSDETGPYAGTLIFARIVDDSFIQSPSKIAGLSFKILPVPKEKSVKFVNESALLVEFPLEDYSGRVVGTIEFYAEREALG
MDERWMVMKITIVFENHAGYRKGLIGYHGFSALVEANGYRVLVDTGTDGKVLLNNMSELGISPDDIDALFITHGHYDHTGGLRELLSARTEALDIYAHPGIFKRRLALKPKKREIGIPFTREELEELGGKFILSDKSKEILPGFISSGEIERITWDRAVGYFPDGSKDPVRDDMALIVEEGSKSVVITGCGHSGIINIAIHSKKLTNNRIAALIGGFHLKGIERSLLDEAVKKLRELEIEKLYPGHCTGIEEFAYLWSKFGNVEGIHVGKEIKILEHHHHHH
MSLTLKLFELVGADAGRPFSPFVWRTRMALAHKGLTAETIPWRFTDKAAIAPYGSEKVPVLLDGDKVVADSWAIANYLEDAYPDRPSLFGGDGGRAMARMLNWWGDLAIIGGIFPMIVADIAQRLDPEDAAYFRQSREARLKTTLEEAAASRDRAVQGFRKSLDPLRLTLKTQAFIGGAAPNYADYIVFGGFQWARVVSDFSLLQSDDPVYAWRERLLDAFGGLARATPGYPVEGHHHHHH
